Where two headings read alike, the source gives them in different places.
T1: Rhesus SLC34A2 (Rhesus, UniProt F7HDA3 1-690)
T1 construct: whole, on cells
T1 sequence: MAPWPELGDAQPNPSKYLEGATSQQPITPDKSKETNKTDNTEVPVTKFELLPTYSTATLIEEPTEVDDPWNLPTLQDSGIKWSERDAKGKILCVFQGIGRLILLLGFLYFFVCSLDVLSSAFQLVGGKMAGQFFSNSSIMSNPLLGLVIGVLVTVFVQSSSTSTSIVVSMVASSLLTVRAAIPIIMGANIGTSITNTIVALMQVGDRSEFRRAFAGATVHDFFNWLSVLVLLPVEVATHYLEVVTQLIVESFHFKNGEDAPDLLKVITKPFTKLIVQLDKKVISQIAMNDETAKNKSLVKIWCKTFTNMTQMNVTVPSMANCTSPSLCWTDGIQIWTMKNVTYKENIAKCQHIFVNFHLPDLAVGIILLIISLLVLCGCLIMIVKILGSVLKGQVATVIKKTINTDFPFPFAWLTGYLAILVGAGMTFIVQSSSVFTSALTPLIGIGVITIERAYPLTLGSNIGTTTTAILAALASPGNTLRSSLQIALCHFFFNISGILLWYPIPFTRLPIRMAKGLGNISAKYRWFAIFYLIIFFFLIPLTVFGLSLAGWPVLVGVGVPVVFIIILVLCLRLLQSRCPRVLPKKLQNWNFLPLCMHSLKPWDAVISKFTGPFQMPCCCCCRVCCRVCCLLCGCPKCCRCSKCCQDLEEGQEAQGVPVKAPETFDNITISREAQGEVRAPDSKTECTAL

T2: human SLC34A2 (human, UniProt O95436 1-690)
T2 construct: whole, on cells; also called human solute carrier 34 A2; NaPi2b
T2 sequence (looked up): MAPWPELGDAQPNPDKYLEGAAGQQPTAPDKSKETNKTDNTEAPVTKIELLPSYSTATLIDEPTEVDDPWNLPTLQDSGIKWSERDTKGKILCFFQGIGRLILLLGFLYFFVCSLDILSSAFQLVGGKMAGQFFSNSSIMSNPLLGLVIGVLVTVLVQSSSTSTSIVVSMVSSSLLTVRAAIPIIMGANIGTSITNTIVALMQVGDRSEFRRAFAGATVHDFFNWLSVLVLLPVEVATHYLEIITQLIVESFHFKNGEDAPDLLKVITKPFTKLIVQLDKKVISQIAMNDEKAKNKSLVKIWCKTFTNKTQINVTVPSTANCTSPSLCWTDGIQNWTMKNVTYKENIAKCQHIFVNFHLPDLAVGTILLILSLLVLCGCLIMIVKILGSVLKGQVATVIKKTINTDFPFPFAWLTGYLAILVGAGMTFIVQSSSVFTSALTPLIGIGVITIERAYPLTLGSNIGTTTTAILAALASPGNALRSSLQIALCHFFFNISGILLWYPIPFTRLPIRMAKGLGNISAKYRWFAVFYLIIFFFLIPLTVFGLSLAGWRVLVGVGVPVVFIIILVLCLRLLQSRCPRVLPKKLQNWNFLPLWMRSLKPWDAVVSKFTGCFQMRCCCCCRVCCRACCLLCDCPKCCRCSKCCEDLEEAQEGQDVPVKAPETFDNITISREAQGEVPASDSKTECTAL

T3: Cynomolgus SLC34A2 (Cynomolgus, UniProt A0A2K5UHY1 1-690)
T3 construct: whole, on cells; also called Cyno SLC34A2
T3 sequence: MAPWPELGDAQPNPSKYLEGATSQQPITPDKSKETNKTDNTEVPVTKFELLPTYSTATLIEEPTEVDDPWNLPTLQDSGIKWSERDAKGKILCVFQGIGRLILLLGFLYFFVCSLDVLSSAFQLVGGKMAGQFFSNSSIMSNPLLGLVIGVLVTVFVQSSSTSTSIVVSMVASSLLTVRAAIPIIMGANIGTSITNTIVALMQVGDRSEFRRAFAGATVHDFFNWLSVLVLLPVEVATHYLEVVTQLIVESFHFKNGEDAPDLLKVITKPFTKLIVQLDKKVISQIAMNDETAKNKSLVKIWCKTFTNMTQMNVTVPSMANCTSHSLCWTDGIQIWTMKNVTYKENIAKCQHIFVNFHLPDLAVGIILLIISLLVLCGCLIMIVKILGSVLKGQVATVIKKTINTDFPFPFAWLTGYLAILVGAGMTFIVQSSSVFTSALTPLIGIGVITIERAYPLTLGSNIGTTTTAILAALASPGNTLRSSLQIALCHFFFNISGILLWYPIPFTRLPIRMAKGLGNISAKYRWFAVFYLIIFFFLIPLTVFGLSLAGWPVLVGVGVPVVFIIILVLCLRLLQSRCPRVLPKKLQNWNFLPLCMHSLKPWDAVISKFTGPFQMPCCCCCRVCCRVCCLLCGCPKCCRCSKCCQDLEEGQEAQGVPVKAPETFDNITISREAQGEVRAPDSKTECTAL


Assays:
Rhesus SLC34A2 [1] = molecular target: T1, Rhesus SLC34A2; test: FACS, HEK293/Rhesus SLC34A2 cells
human SLC34A2 [2] = molecular target: T2, human SLC34A2; test: FACS, MDAH2774 cells
Cynomolgus SLC34A2 = molecular target: T3, Cynomolgus SLC34A2; test: FACS, cells expressing Cynomolgus SLC34A2
human SLC34A2 [3] = molecular target: T2, human SLC34A2; test: FACS, RMG-1 cells
human SLC34A2 [4] = molecular target: T2, human SLC34A2; test: FACS, HEK293/human SLC34A2 cells
Protocol: (§1) Briefly, OVCAR3 cells or HEK293 cells expressing human SLC34A2 were incubated with chimeric antibodies (from 200 nM, 4 folds dilution, 8 points). After incubation at 4° C. for 60 minutes, the cells were washed with FACS buffer twice, then stained with fluorescent conjugated secondary antibody at 4° C. for 30 minutes. After that the cells were washed twice and analyzed by flow cytometry.

Rhesus SLC34A2 [5] = molecular target: T1, Rhesus SLC34A2; test: FACS, HEK293/Rhesus SLC34A2 cells; remark: listed apart in the source
Protocol: as §1, with “the Rhesus SLC34A2 expressing HEK293 engineering” for “OVCAR3”, “(HEK293/Rhesus_SLC34A2)” for “or HEK293 cells expressing human SLC34A2”, “Abs” for “antibodies”

human SLC34A2 [6] = molecular target: T2, human SLC34A2; test: FACS, OVCAR3 cells
Procedure, shortened: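 Chimeric hIgG1 antibodies titrated from 200 nM (4-fold, 8 points) on OVCAR3 cells or HEK293 cells expressing human SLC34A2, 60 min at 4° C. Bound antibody detected with fluorescent secondary antibody (30 min, 4° C) and measured by flow cytometry.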

human SLC34A2 [7] = molecular target: T2, human SLC34A2; test: FACS, OVCAR3 cells; remark: listed apart in the source

EC50 (Rhesus SLC34A2 [1]) [nM] | EC50 (human SLC34A2 [2]) [nM] | EC50 (Cynomolgus SLC34A2) [nM] | EC50 (human SLC34A2 [3]) [nM] | EC50 (human SLC34A2 [4]) [nM] | Top (MFI) (human SLC34A2 [4]) | EC50 (Rhesus SLC34A2 [5]) [nM] | Top (MFI) (Rhesus SLC34A2 [5]) | EC50 (human SLC34A2 [6]) [nM] | Top (MFI) (human SLC34A2 [6]) | EC50 (human SLC34A2 [7]) [nM] | Top (MFI) (human SLC34A2 [7]) | Binder
0.7 | 1.28 | 0.97 | 1.4 | – | – | – | – | – | – | – | – | 30H9B8F9.p1.z5 hIgG1 (antibody, V domains shown, humanized hIgG1) VH: QVQLVQSGAEVKKPGASVKVSCKTSGYTFTTNNMHWVRQAPGQGLEWIGAIYPGSGATAYNQKFKGRVTMTADTSTSTVYMELSSLRSEDTAVYYCARGMYGHGAMDYWGQGTLVTVSS VL: DIQLTQSPSFLSASVGDRVTITCKASQDVGTAVAWYQQKPGKAPKLLIYWATTRHSGVPSRFSGSGSGTEFTLTISSLQPEDFATYYCQQYSSNPLTFGQGTKLEIK
– | 7.09 | – | – | – | – | – | – | – | – | – | – | XMT-1536 (antibody, INN chains, looked up, V domains shown, rilsodotin auristatin payload) VH: QVQLVQSGAEVVKPGASVKMSCKASGYTFTGYNIHWVKQAPGQGLEWIGAIYPGNGDTSYKQKFRGRATLTADTSTSTVYMELSSLRSEDSAVYYCARGETARATFAYWGQGTLVTVSS VL: DIQMTQSPSSLSASVGDRVTITCSASQDIGNFLNWYQQKPGKTVKVLIYYTSSLYSGVPSRFSGSGSGTDYTLTISSLQPEDFATYYCQQYSKLPLTFGQGTKLELK
4.2 | 2.06 | 45.7 | 2.3 | – | – | – | – | – | – | – | – | 91C9F1.p1.z7 hIgG1 (antibody, V domains shown, humanized hIgG1) VH: QVQLVQSGAEVKKPGSSVKVSCKTSGFFFTEYIIHWVRQAPGQGLEWIGGIIPNNDVTNYKQNFRGRVTLTADKSTSTAYMELSSLRSEDTAVYYCARWRNAYYSAMDSWGQGTTVTVSS VL: DIQVTQSPSSLSTSVGDRVTITCTASQDVGTAVAWYQQKPGKSPKLLIYWASTRHTGVPERFTGSGSGTDFTLTISSVQPEDVATYFCQQYRTSPLTFGVGTKVEIK
– | – | – | – | 1.5 | 103000 | 2.56 | 15100 | 3.85 | 43000 | 9.2 | 78600 | xi63A11D5B4 hIgG1 (antibody, V domains shown, chimeric, hIgG1) VH: QVQLQQPGAELVKPGASVKMSCRTSGYTFITYNMHWVKQTPGQGREWIGAIYPGNGDTSYNQKFKGKATLTADKSSSTAYMQLNSLTSEDSAVYYCSISTIITTGAVDYWGQGTSVTVAS VL: DIVMTQSHKFMSTSVGDRVSITCKASQDVGTAVAWYQQKAGQSPKLLIYWTSTRHTGVPDRFTGSGSGTDFTLIIRSLQSEDLADYFCQQYSRIPLTFGSGTKLEIK

Further lines, the binder ahead of its results:

Binder | EC50 (Rhesus SLC34A2 [1]) [nM] | EC50 (human SLC34A2 [2]) [nM] | EC50 (Cynomolgus SLC34A2) [nM] | EC50 (human SLC34A2 [3]) [nM] | EC50 (human SLC34A2 [4]) [nM] | Top (MFI) (human SLC34A2 [4]) | EC50 (Rhesus SLC34A2 [5]) [nM] | Top (MFI) (Rhesus SLC34A2 [5]) | EC50 (human SLC34A2 [6]) [nM] | Top (MFI) (human SLC34A2 [6]) | EC50 (human SLC34A2 [7]) [nM] | Top (MFI) (human SLC34A2 [7])
62G10E4G8.p3.z15 hIgG1 (antibody, V domains shown, humanized hIgG1) VH: QVQLVQSGAEVVKPGASVKMSCKASGYTFPSYITHWVKQAPGQGLEWIGAIYPGNADTSYIQKFKGRATLTADKSTSTAYMELSSLRSEDTAVYYCARGTYGTSAWFTYWGQGTLVTVSS VL: EIVLTQSPATLSVSPGERATLSCRARQNIGNNLYWYQQKPGQSPRLLIKYASQSISGIPSRFSGSGSGTDFTLTISSLQSEDFAVYFCQQSFSWPLTFGQGTKLEIK | 1.4 | 2.82 | 1.63 | 3.7 | – | – | – | – | – | – | – | –
xi62G10E4G8 hIgG1 (antibody, V domains shown, chimeric, hIgG1) VH: QVQLQQSGAEVVKPGASVKMSCKASGYTFPSYITHWVKQTPGQGLEWIGAIYPGNGDTSYIQKFKGKATLTADKSSSTAYMQLSSLTSEDSAVYYCARGTYGTSAWFTYWGQGTLVTVSA VL: DIVLTQSPATLSVTPGDSVSLSCRARQNIGNNLYWYQQKSHESPRLLIKYASQSISGIPSRFSGSGSGTDFTLTINSVETEDFGVYFCQQSFSWPLTFGAGTKLELK | – | – | – | – | 1.28 | 101000 | 2.53 | 12000 | 2.55 | 43000 | 5.8 | 71100
xi91C9F1 hIgG1 (antibody, V domains shown, chimeric, hIgG1) VH: EVQLQQSGPELVKPGTSVKISCKTSGFFFTEYIIHWVKQSHGRSLEWIGGIIPNNGVTNYKQNFRGKAALTADKSSNTAYMELRSLTSEDSAVYYCARWRNGYYSAMDSWGQGTSVTVSS VL: DIVVTQSHKFMSTSLGDRVSITCTASQDVGTAVAWYQQKPGHSPKLLIYWASTRHTGVPERFTGSGSGTDFTLTITNVQSEDLADYFCQQYRTSPLTFGVGTKLELK | – | – | – | – | 1.06 | 44800 | 0.95 | 12200 | 1.64 | 26400 | 1.6 | 63300
63A11D5B4.p1.z9 hIgG1 (antibody, V domains shown, humanized hIgG1) VH: QVQLVQSGAEVVKPGASVKMSCKTSGYTFITYNMHWVRQAPGQGLEWIGAIYPGSGDTSYNQKFKGRVTLTADKSTSTAYMELSSLRSEDTAVYYCSISTIITTGAVDYWGQGTLVTVSS VL: DIQMTQSPSSLSASVGDRVTITCKASQDVGTAVAWYQQKPGKVPKLLIYWTSTRHTGVPSRFSGSGSGTDFTLTISSLQPEDVATYYCQQYSRIPLTFGGGTKVEIK | 1.6 | 15.1 | 4.45 | 28.3 | – | – | – | – | – | – | – | –
xi30H9B8F9 hIgG1 (antibody, V domains shown, chimeric, hIgG1) VH: QVQLQQPGAELVKPGASVKMSCKTSGYTFTTNNMHWVKQTPGQGLEWIGAIYPGNGATAYNQKFKGKATLTADKSSSTAYMQLSSLTSEASAVYYCARGMYGHGAMDYWGQGTSVIVSS VL: DIVMTQSHKFMSRSVGDRVRITCKASQDVGTAVAWYQQKPGQSPKLLIYWATTRHSGVPDRFTGSGSGTDFIFTISNVQSEDLADYFCQQYSSNPLTFGAGTKLELK | – | – | – | – | 0.96 | 107000 | 1.26 | 17000 | 0.53 | 41900 | 1.1 | 69100
